Measured values from publication PMC5723433, “Identification and characterization of a novel zebrafish (Danio rerio) pentraxin–carbonic anhydrase” (PeerJ, 2017).
One block for each molecule: values may come before it.

Key:
[1] = molecular target: zebrafish (Danio rerio) carbonic anhydrase VI-pentraxin (CA VI–PTX), recombinant (zebrafish (Danio rerio)); test: SEC + other: static and dynamic light scattering (LC-SLS-DLS); 50 ug protein injected on Superdex 200 5/150 in 50 mM NaH3PO4, 500 mM NaCl pH 8, 0.1 ml/min, 20 °C; MW from standard proteins (SEC) and from light-scattering intensity calibrated on monomeric BSA (SLS); Rh from DLS
[2] = molecular target: the molecule itself; test: not stated; unpublished data, preliminary result; protein in solution

stoichiometry N [1]: 5
Molecule: zebrafish (Danio rerio) carbonic anhydrase VI-pentraxin (CA VI–PTX), recombinant (enzyme)

B1: human carbonic anhydrase VI (CA VI) (enzyme, UniProt P23280-1 18-308, looked up)
chain: QHVSDWTYSEGALDEAHWPQHYPACGGQRQSPINLQRTKVRYNPSLKGLNMTGYETQAGEFPMVNNGHTVQISLPSTMRMTVADGTVYIAQQMHFHWGGASSEISGSEHTVDGIRHVIEIHIVHYNSKYKSYDIAQDAPDGLAVLAAFVEVKNYPENTYYSNFISHLANIKYPGQRTTLTGLDVQDMLPRNLQHYYTYHGSLTTPPCTENVHWFVLADFVKLSRTQVWKLENSLLDHRNKTIHNDYRRTQPLNHRVVESNFPNQEYTLGSEFQFYLHKIEEILDYLRRALN
notes: carbonic anhydrase VI, human; Only an unpublished preliminary result is told (A. Yrjänäinen, 2017); also called human CA VI; gustin
stoichiometry N [2]: 2
